Source: patent US20180155451A1 (published 2018)

B1: GpH7-A5/GpH7-B3 variant A330_09D/GpL16-k0 (He Ab) (antibody, human IgG1, kappa)
heavy 1: not shown
heavy 2: not shown
light: DIVMTQSPLSLPVTPGEPASISCQASESLVHSNRNTYLHWYLQKPGQSPQLLIYKVSNRFSGVPDRFSGSGSGTDFTLKISRVEAEDVGVYYCSQNTHVPPTFGQGTKVEIERTVAAPSVFIFPPSDEQLKSGTASVVCLLNNFYPREAKVQWKVDNALQSGNSQESVTEQDSKDSTYSLSSTLTLSKADYEKHKVYACEVTHQGLSSPVTKSFNRGEC
notes: He Ab: alteration only in the GpH7-B3 chain
B2: GpH7-A5/GpH7-B3 variant K326_15Y/GpL16-k0 (He Ab) (antibody, human IgG1, kappa)
heavy 1: not shown
heavy 2: not shown
light: B1 light
notes: as for B1
B3: GpH7-A5/GpH7-B3 variant E269_08L/GpL16-k0 (He Ab) (antibody, human IgG1, kappa)
heavy 1: not shown
heavy 2: not shown
light: B1 light
notes: as for B1
B4: GpH7-A5/GpH7-B3 variant I336_18N/GpL16-k0 (He Ab) (antibody, human IgG1, kappa)
heavy 1: not shown
heavy 2: not shown
light: B1 light
notes: as for B1
B5: GpH7-A5/GpH7-B3 variant S298_14T/GpL16-k0 (He Ab) (antibody, human IgG1, kappa)
heavy 1: not shown
heavy 2: not shown
light: B1 light
notes: as for B1
B6: GpH7-A5/GpH7-B3 variant Q295_03V/GpL16-k0 (He Ab) (antibody, human IgG1, kappa)
heavy 1: not shown
heavy 2: not shown
light: B1 light
notes: as for B1
B7: GpH7-A5/GpH7-B3 variant S298_03V/GpL16-k0 (He Ab) (antibody, human IgG1, kappa)
heavy 1: not shown
heavy 2: not shown
light: B1 light
notes: as for B1
B8: GpH7-A5/GpH7-B3 variant P271_12R/GpL16-k0 (He Ab) (antibody, human IgG1, kappa)
heavy 1: not shown
heavy 2: not shown
light: B1 light
notes: as for B1
B9: GpH7-A5/GpH7-B3 variant P271_13S/GpL16-k0 (He Ab) (antibody, human IgG1, kappa)
heavy 1: not shown
heavy 2: not shown
light: B1 light
notes: as for B1
B10: GpH7-A5/GpH7-B3 variant E269_06M/GpL16-k0 (He Ab) (antibody, human IgG1, kappa)
heavy 1: not shown
heavy 2: not shown
light: B1 light
notes: as for B1
B11: GpH7-A5/GpH7-B3 variant K334_10E/GpL16-k0 (He Ab) (antibody, human IgG1, kappa)
heavy 1: not shown
heavy 2: not shown
light: B1 light
notes: as for B1
B12: GpH7-A5/GpH7-B3 variant S267_01G/GpL16-k0 (He Ab) (antibody, human IgG1, kappa)
heavy 1: not shown
heavy 2: not shown
light: B1 light
notes: as for B1
B13: GpH7-A5/GpH7-B3 variant Q295_07I/GpL16-k0 (He Ab) (antibody, human IgG1, kappa)
heavy 1: not shown
heavy 2: not shown
light: B1 light
notes: as for B1
B14: GpH7-A5/GpH7-B3 variant Q295_02A/GpL16-k0 (He Ab) (antibody, human IgG1, kappa)
heavy 1: not shown
heavy 2: not shown
light: B1 light
notes: as for B1
B15: GpH7-A5/GpH7-B3 variant S298_15Y/GpL16-k0 (He Ab) (antibody, human IgG1, kappa)
heavy 1: not shown
heavy 2: not shown
light: B1 light
notes: as for B1
B16: GpH7-A5/GpH7-B3 variant A330_14T/GpL16-k0 (He Ab) (antibody, human IgG1, kappa)
heavy 1: not shown
heavy 2: not shown
light: B1 light
notes: as for B1
B17: GpH7-A5/GpH7-B3 variant S324_19Q/GpL16-k0 (He Ab) (antibody, human IgG1, kappa)
heavy 1: not shown
heavy 2: not shown
light: B1 light
notes: as for B1
B18: GpH7-A5/GpH7-B3 variant P271_07I/GpL16-k0 (He Ab) (antibody, human IgG1, kappa)
heavy 1: not shown
heavy 2: not shown
light: B1 light
notes: as for B1
B19: GpH7-A5/GpH7-B3 variant G236_20W/GpL16-k0 (He Ab) (antibody, human IgG1, kappa)
heavy 1: not shown
heavy 2: not shown
light: B1 light
notes: He Ab: alteration only in the GpH7-B3 chain; also called GpH7-A5/GpH7-B3-03-20W/GpL16-k0
B20: GpH7-A5/GpH7-B3 variant Q295_04F/GpL16-k0 (He Ab) (antibody, human IgG1, kappa)
heavy 1: not shown
heavy 2: not shown
light: B1 light
notes: as for B1
B21: GpH7-A5/GpH7-B3 variant S337_01G/GpL16-k0 (He Ab) (antibody, human IgG1, kappa)
heavy 1: not shown
heavy 2: not shown
light: B1 light
notes: as for B1
B22: GpH7-A5/GpH7-B3 variant I336_04F/GpL16-k0 (He Ab) (antibody, human IgG1, kappa)
heavy 1: not shown
heavy 2: not shown
light: B1 light
notes: as for B1
B23: GpH7-A5/GpH7-B3 variant S267_02A/GpL16-k0 (He Ab) (antibody, human IgG1, kappa)
heavy 1: not shown
heavy 2: not shown
light: B1 light
notes: as for B1
B24: GpH7-A5/GpH7-B3 variant I336_03V/GpL16-k0 (He Ab) (antibody, human IgG1, kappa)
heavy 1: not shown
heavy 2: not shown
light: B1 light
notes: as for B1
B25: GpH7-A5/GpH7-B3 variant S298_08L/GpL16-k0 (He Ab) (antibody, human IgG1, kappa)
heavy 1: not shown
heavy 2: not shown
light: B1 light
notes: as for B1
B26: GpH7-A5/GpH7-B3 variant S298_07I/GpL16-k0 (He Ab) (antibody, human IgG1, kappa)
heavy 1: not shown
heavy 2: not shown
light: B1 light
notes: as for B1
B27: GpH7-A5/GpH7-B3 variant S239_01G/GpL16-k0 (He Ab) (antibody, human IgG1, kappa)
heavy 1: not shown
heavy 2: not shown
light: B1 light
notes: as for B1
B28: GpH7-A5/GpH7-B3 variant S324_03V/GpL16-k0 (He Ab) (antibody, human IgG1, kappa)
heavy 1: not shown
heavy 2: not shown
light: B1 light
notes: as for B1
B29: GpH7-A5/GpH7-B3 variant S324_20W/GpL16-k0 (He Ab) (antibody, human IgG1, kappa)
heavy 1: not shown
heavy 2: not shown
light: B1 light
notes: as for B1
B30: GpH7-A5/GpH7-B3 variant S337_03V/GpL16-k0 (He Ab) (antibody, human IgG1, kappa)
heavy 1: not shown
heavy 2: not shown
light: B1 light
notes: as for B1

molecular target: T1, FcγRIa extracellular domain with C-terminal His tag (human, UniProt P12314 16-292); assay: SPR Biacore, antibody captured, FcγRIa analyte; vs GpH7-A5/GpH7-B3/GpL16-k0 = 100
T1 construct: extracellular domain; Expressed in FreeStyle293 cells; analyte in Biacore; also called FcgRI; FcgRIa
T1 sequence (P12314 16-292): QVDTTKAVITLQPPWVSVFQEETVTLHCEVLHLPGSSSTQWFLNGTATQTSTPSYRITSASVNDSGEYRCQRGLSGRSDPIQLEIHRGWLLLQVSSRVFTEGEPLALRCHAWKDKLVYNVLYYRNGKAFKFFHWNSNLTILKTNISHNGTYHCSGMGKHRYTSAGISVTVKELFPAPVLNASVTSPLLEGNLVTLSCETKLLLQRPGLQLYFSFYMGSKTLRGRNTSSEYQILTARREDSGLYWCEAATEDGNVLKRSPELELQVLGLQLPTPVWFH

| He/Con_1a | Binder |
| --- | --- |
| 109 relative (control = 100) | B1 |
| 106 relative (control = 100) | B2 |
| 104 relative (control = 100) | B3 |
| 108 relative (control = 100) | B4 |
| 107 relative (control = 100) | B5 |
| 104 relative (control = 100) | B6 |
| 110 relative (control = 100) | B7 |
| 102 relative (control = 100) | B8 |
| 102 relative (control = 100) | B9 |
| 104 relative (control = 100) | B10 |
| 110 relative (control = 100) | B11 |
| 103 relative (control = 100) | B12 |
| 103 relative (control = 100) | B13 |
| 104 relative (control = 100) | B14 |
| 107 relative (control = 100) | B15 |
| 105 relative (control = 100) | B16 |
| 112 relative (control = 100) | B17 |
| 102 relative (control = 100) | B18 |
| 105 relative (control = 100) | B19 |
| 102 relative (control = 100) | B20 |
| 107 relative (control = 100) | B21 |
| 106 relative (control = 100) | B22 |
| 109 relative (control = 100) | B23 |
| 105 relative (control = 100) | B24 |
| 107 relative (control = 100) | B25 |
| 107 relative (control = 100) | B26 |
| 101 relative (control = 100) | B27 |
| 104 relative (control = 100) | B28 |
| 114 relative (control = 100) | B29 |
| 107 relative (control = 100) | B30 |
